This note sets out measurements from patent US20200199244A1 (published 2020).

In general, EC50 refers to the midpoint of the concentration-response curve. Higher therefore signals a less potent agent.

T1: Macaca fascicularis CD40 (Macaca fascicularis (cynomolgus monkey), UniProt P25942 21-277 (human entry))
T1 chain: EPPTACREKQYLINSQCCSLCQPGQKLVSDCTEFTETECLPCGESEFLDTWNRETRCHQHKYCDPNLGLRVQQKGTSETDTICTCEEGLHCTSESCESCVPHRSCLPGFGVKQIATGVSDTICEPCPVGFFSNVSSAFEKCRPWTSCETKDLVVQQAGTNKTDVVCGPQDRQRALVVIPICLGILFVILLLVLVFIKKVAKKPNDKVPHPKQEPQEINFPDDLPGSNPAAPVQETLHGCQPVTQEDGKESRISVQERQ

B1: BMS3h-106 (other)
VH: EVQLLESGGGLVQPGGSLRLSCAASGFTFSTYHMQWVRQAPGKGLEWVSMIDADGLGTYYADSVKGRFTISRDNSKNTLYLQMNSLRAEDTAVYYCAKPGPQFGQFDYWGQGTLVTVSS
B2: BMS3h-197 (other)
VH: EVQLLESGGGLVQPGGSLRLSCAASGFTFGSAAMDWVRQAPGKGLEWVSSINDMGSNTYYADSVKGRFTISRDNSKNTLYLQMNSLRAEDTAVYYCAKQGGRFDYWGQGTLVTVSS
B3: BMS3h-131 (other)
VL: DIQMTQSPSSLSASVGDRVTITCRANSSILWALAWYQQKPGKAPKLLIESSSGLQSGVPSRFSGSGSGTDFTLTISSLQPEDFATYYCVQNAGWPGTFGQGTKVEIKR
B4: BMS3h-131-2 (other)
VL: B3 VL with N26D, G93V
B5: BMS3h-56 (other)
VH: EVQLLESGGGLVQPGGSLRLSCAASGFTFRDYEMWWVRQAPGKGLERVSAINPQGTRTYYADSVKGRFTISRDNSKNTLYLQMNSLRAEDTAVYYCAKLPFIFDYWGQGTLVTVSS
B6: BMS3h-56-5 (other)
VH: B5 VH with K65M, I102T, Y105D
B7: BMS3h-107 (other)
VH: EVQLLESGGGLVQPGGSLRLSCAASGFTFSGYDMQWVRQAPGKGLEWVSTISASGVFTYYADSVKGRFTTSRDNSKNTLYLQMNSLRAEDTAVYYCAKYPNRFALNNFDYWGQGTLVTVSS
B8: BMS3h-37 (other)
VH: EVQLLESGGGLVQPGGSLRLSCAASGFTFEWYEMQWVRQAPGKGLEWVSAISGDGYRTYYADSVKGRFTISRDNSKNTLYLQMNSLRAEDTAVYYCAKELGYFDYWGQGTLVTVSS
B9: BMS3h-37-2 (other)
VH: B8 VH with Q39R, Q108R
B10: BMS3h-41-3 (other)
VH: EVQLLEPGGGLVQPGGSLRLSCAASGFTFTEYEMIWVRKAPGKGMEWVSSISGNGANTYYADSVKGRFTISRDNSKNMLYLQMNSLRAEDTAVYYCAKEPLRFGYWGQGTLVTVSS
B11: BMS3h-43 (other)
VH: EVQLLESGGGLVQPGGSLRLSCTASGFTFNMYEMSWVRQAPGKGLEWVSGISRRGFTTYYADSVKGRFTISRDNSKNTLYLQMNSLRAEDTAVYYCAKEPITYAMRYARFDYWGQGTLVTVSS
B12: DMS0686 BMS3h-56-258-(G4S)5-DOM7h-11-90 (bispecific antibody)
chain: EVQLLESGGGLVQPGGSLRLSCAASGFTFRDYEMWWVRQAPGKGLERVSAINPQGTRTYYADSVKGRFTISRDNSKNTLYLQMNSLRAEDTAVYYCAKLPFYFHEWGQGTLVTVSSGGGGSGGGGSGGGGSGGGGSGGGGSDIQMTQSPSSLSASVGDRVTITCRASRPIGTMLSWYQQKPGKAPKLLILAFSRLQSGVPSRFSGSGSGTDFTLTISNLQPEDFATYYCAQAGTHPTTFGQGTKVEIKR
B13: DMS0685 BMS3h-56-258-(G4S)3-DOM7h-11-90 (bispecific antibody)
chain: EVQLLESGGGLVQPGGSLRLSCAASGFTFRDYEMWWVRQAPGKGLERVSAINPQGTRTYYADSVKGRFTISRDNSKNTLYLQMNSLRAEDTAVYYCAKLPFYFHEWGQGTLVTVSSGGGGSGGGGSGGGGSDIQMTQSPSSLSASVGDRVTITCRASRPIGTMLSWYQQKPGKAPKLLILAFSRLQSGVPSRFSGSGSGTDFTLTISNLQPEDFATYYCAQAGTHPTTFGQGTKVEIKR
B14: DMS0684 BMS3h-56-258-G4S-DOM7h-11-90 (bispecific antibody)
chain: EVQLLESGGGLVQPGGSLRLSCAASGFTFRDYEMWWVRQAPGKGLERVSAINPQGTRTYYADSVKGRFTISRDNSKNTLYLQMNSLRAEDTAVYYCAKLPFYFHEWGQGTLVTVSSGGGGSDIQMTQSPSSLSASVGDRVTITCRASRPIGTMLSWYQQKPGKAPKLLILAFSRLQSGVPSRFSGSGSGTDFTLTISNLQPEDFATYYCAQAGTHPTTFGQGTKVEIKR
B15: BMS3h-198-1 (other)
VH: EVQLLESGGGLVQPGGSLRLSCAASGSTIAGYEMWWVRQAPGKGLERVSAISGSGGSTYYADSVKGRFTISRDDSKNTLYLQMNSLRAEDTAVYYCARDPYSFDYWGQGTLVTVSS
notes: dAb, single VH
B16: BMS3h-193-15 (other)
VL: DIQMTQSPSSLSASVGDRVTITCRASRTIERRLNWYQQKPGKAPKLLIYLASRLQSGVPSRFSGSGSGTDFTLTISSLQPEDFATYYCHPYESPPLTFGQGTKVEIKR
notes: dAb, single VK
B17: BMS3h-202-10 (other)
VH: EVQLLESGGGLVQPGGSLRLSCAASGFTFPTAEMLWVRQAPGKGLEWVSSISASGGSTYYADSVKGRFTISRDNSKNTLYLQMNSLRAEDTAVYYCAKEPVYYVATFDYWGQGTLVTVSS
notes: dAb, single VH
B18: BMS3h-202-11 (other)
VH: B17 VH with Q39K, T91A, Y102S
notes: dAb, single VH
B19: BMS3h-198-3 (other)
VH: B15 VH with L11S, S25T, I29F, F103Y, T113S
notes: dAb, single VH
B20: BMS3h-41-10 (other)
VH: B10 VH with P7S, G9V, M45L, M78T, G104D, Y105N
notes: dAb, single VH
B21: BMS3h-37-2 (other)
VH: B8 VH with Q39R, Q108R
notes: dAb, single VH
B22: BMS3h-41-3 (other)
VH: B10 VH
notes: dAb, single VH
B23: BMS3h-198-2 (other)
VH: B15 VH with L4P, S27F, I29F, V48I
notes: dAb, single VH
B24: BMS3h-38-8 (other)
VH: EVQLLESGGGLVQPGGSLRLSCAASGFTFEEEEMIWVRQAPGKGLEWISAISGSGGSTYYADSVKGRFTIHRDNSKNTLYLQMNSLRAEDTAVYYCSKEPFRFDYRGLGTLVTVSS
notes: dAb, single VH
B25: BMS3h-37-4 (other)
VH: B8 VH with Q39K, Q108R
notes: dAb, single VH
B26: BMS3h-37-11 (other)
VH: B8 VH with Q39K, W106R, Q108R
notes: dAb, single VH
B27: BMS3h-38-5 (other)
VH: B24 VH with E6G, I48V, H71S, S97G, R106W, L108Q
notes: dAb, single VH
B28: BMS3h-43-5 (other)
VH: B11 VH with M31T, S52G, A104D, M105L, W113S
notes: dAb, single VH
B29: BMS3h-43-3 (other)
VH: B11 VH with S75F, A104D, W113G
notes: dAb, single VH

Residue numbers refer to the chain shown, from its start. Numbers in names are those of the source.

The target of one experiment is human CD40 (human, UniProt P25942 21-277). Put plainly: cell-based or functional assay.
B1: the “hIZCD40L-driven Human B Cell Proliferation EC50” value was found to be 437 nM.
On to B2, for which the “hIZCD40L-driven Human B Cell Proliferation EC50” value was 360 nM.
On the same count and under the same terms, the figure for B3 is 2700 nM; for B4 it is 55 nM; for B5 it is 713 nM.
On the same count and under the same terms, the figure for B6 is 6 nM.
On the same count and under the same terms, to B7 belongs above 7000 nM; to B8, 3400 nM.
For B9, the “CHO-hCD40L-driven DC Activation IL-12 EC50” value was determined as 13 nM, the “T-B cell MLR EC50” value was found to be 198 nM and the “hIZCD40L-driven Human B Cell Proliferation EC50” value came to 5 nM.
On to B10, for which the “hIZCD40L-driven Human B Cell Proliferation EC50” value turned out to be 12 nM.
Same read-out and setting: the figure for B11 is 83 nM.

A further experiment addresses T1, Macaca fascicularis CD40. Briefly: cell-based or functional assay.
For the molecule B1, the “hIZCD40L-driven Cyno B Cell Proliferation EC50” value was above 7000 nM.
Still for that read-out and setting: to B2 belongs above 7000 nM; to B3, above 7000 nM.
Consider B4, for which the “hIZCD40L-driven Cyno B Cell Proliferation EC50” value was above 7000 nM.
For the molecule B5, the “hIZCD40L-driven Cyno B Cell Proliferation EC50” value was above 7000 nM.
For the molecule B6, the “hIZCD40L-driven Cyno B Cell Proliferation EC50” value was above 7000 nM.
In the case of B7, the “hIZCD40L-driven Cyno B Cell Proliferation EC50” value is above 7000 nM.
On the same count and under the same terms, the figure for B8 is above 7000 nM; for B9 it is above 7000 nM.
With B10, the “hIZCD40L-driven Cyno B Cell Proliferation EC50” value is above 7000 nM.
Same read-out and setting: the figure for B11 is above 7000 nM.

For another experiment, the target named is human CD40 (human, UniProt P25942 21-277). Put plainly: cell-based or functional assay. The source holds these as a separate data set.
Regarding B12, the “ICAM-1 Cell Assay EC50 (nM), 10% bovine serum” value was 48.3 nM and the “ICAM-1 Cell Assay EC50 (nM), 10% human serum” value was determined as 66.6 nM.
The matching figures for B13: 31.9 nM and 62.4 nM.
Regarding B14, the “ICAM-1 Cell Assay EC50 (nM), 10% bovine serum” value worked out at 37.9 nM and the “ICAM-1 Cell Assay EC50 (nM), 10% human serum” value was 74.3 nM.

Another experiment addresses T2, human CD40 (BMS, CY24FEB06-01) (human, UniProt P25942 21-193).
T2 construct: Soluble reagent of the bead and ELISA RBA; It is detected with an anti-human IgG (Fc) mAb, so it may be a CD40-Ig fusion
Briefly: ELISA RBA, competition with IZ-CD40L. (In general: ELISA stands for enzyme-linked immunosorbent assay.)
Protocol: Clear walled High Bind, 384-well plates (Corning, UK) were coated with 25 μl of 1 μg/ml Neutravidin in 0.2 M carbonate-bicarbonate buffer, pH 9.4 overnight at 4° C. The following day, assay plates were washed with 0.1% (v/v) Tween PBS buffer, blocked with 1% (w/v) BSA in PBS for 1 hour at room temperature and washed again. […] Following washing of the assay plate, the dAb:human CD40 complex was incubated in the assay plate at room temperature for 2 hours with gentle agitation. […] Absorbance signal was measured using a SpectraMax® M5e plate reader (Molecular Devices) at 450 nm following neutralization with 1M HCl solution.
Consider B15, for which the EC50 is 12 nM.

Another experiment deals with T3, human CD40 expressed on stably transfected CHO-DG44 cells (human, UniProt P25942 21-277).
T3 construct: also called CHO-CD40
Briefly: CHO-CD40 cell RBA, competition with IZ-CD40L.
Protocol: The mixture was incubated in the absence of light for 6 hours.
On to B16, for which a half-maximal response (EC50) required 300 nM.
The same measure, in the same setting: to B17 belongs 7200 nM; to B18, 8300 nM.
Same read-out and setting: to B19 belongs 330 nM.
Regarding B20, the EC50 came out at 4300 nM.
The same measure, in the same setting: to B21 belongs 32 nM; to B22, 200 nM; to B23, 115 nM.
Same read-out and setting: to B24 belongs 2800 nM; to B15, 70 nM; to B25, 45 nM.
On the same count and under the same terms, the figure for B26 is 27 nM; for B27 it is 1000 nM; for B28 it is 90 nM.
In the case of B29, the EC50 amounted to 320 nM.
